The record followed here is publication PMC8805405 (Journal of Nanobiotechnology, 2022).

The target of this test is T1, recombinant human TNF-α (Homo sapiens, UniProt P01375).
T1 construct: tumor necrosis factor alpha, human, recombinant; also called tumor necrosis factor (TNF)-α; source: bought: R&D Systems
As to the kind of experiment: BLI; BLItz; human TNF-α (5 μg/mL in 10 mM acetate, pH 5) immobilised on AR2G biosensors by EDC/s-NHS; various concentrations of antibody at room temperature; global fit, BLItz Pro 1.2. (In general: BLI is a label-free optical method that tracks binding on a fibre tip over time.)

Residue numbers refer to the chain shown, from its start. Read-outs that look alike come from different tables or passages of the source.

T1 sequence (P01375 77-233): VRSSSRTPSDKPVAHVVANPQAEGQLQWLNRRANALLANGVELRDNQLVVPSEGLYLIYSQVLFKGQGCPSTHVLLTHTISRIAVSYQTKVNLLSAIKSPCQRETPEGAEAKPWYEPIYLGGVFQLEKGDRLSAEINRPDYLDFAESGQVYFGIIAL

B1: humanized anti-TNF-α mAb C5 (C + b) (antibody, V domains shown)
VH: EVQLVESGGGLVKPGGSLRLSCAASGFTFSNHWMNWVRQAPGKGLEWVGEIRSKSINSATHYAAPVKGRFTISRDDSKNTLYLQMNSLKTEDTAVYYCTRNYYGSTYDYWGQGTTVTVSS
VL: EIVLTQSPDFQSVTPKEKVTITCRASQSIGSSLHWYQQKPDQSPKLLIKYASQSFSGVPSRFSGSGSGTDFTLTINSLEAEDAATYYCHQSSSWPFTFGQGTKLEIK
Consider B1, for which the Kd – broadly, the free concentration of one partner at which half of the binding sites on the other are occupied at equilibrium, for simple one-to-one binding – was determined as 17.7 nM; the koff – broadly, a measure of how fast the partners let go of each other – is 0.000475 s⁻¹; the on-rate (kon) (usually a measure of how fast the partners come together) was 26800 M⁻¹ s⁻¹.

B2: humanized anti-TNF-α mAb C1 (A + a) (antibody, V domains shown)
VH: B1 VH with A64E, P65S
VL: B1 VL with S28F, I29V, L33I, Q53E, F55M, H89Q, S92H
notes: VH grafting condition a (Remicade CDRs on human germline IGHV3-15*07-JH5); heavy-chain constant region; VL grafting condition A (Remicade CDRs on human germline IGKV6-21*01-JK2); light-chain constant region; source: Expi293, transfected, purified (protein A sepharose)
On to B2, for which, where the note is “both partners purified”, the equilibrium dissociation constant (Kd) was determined as 0.935 nM, the koff stood at 0.000134 s⁻¹ and the on-rate (kon) was 143000 M⁻¹ s⁻¹.

B3: humanized anti-TNF-α mAb C3 (B + b) (antibody, V domains shown)
VH: B1 VH
VL: B1 VL with S28F, S92H
notes: VH grafting condition b (Remicade CDRs on human germline IGHV3-15*07-JH5); as the heavy chain of m4; heavy-chain constant region; VL grafting condition B (Remicade CDRs on human germline IGKV6-21*01-JK2); light-chain constant region; source: Expi293, transfected, purified (protein A sepharose)
Turning to B3, for the setting “both partners purified”, the dissociation constant Kd came out at 5.5 nM, the koff was found to be 0.00015 s⁻¹ and the kon is 27200 M⁻¹ s⁻¹.
